From US20200263158 come the findings set out here.

Data set [1] relates to blue casein (zymogram gel substrate).
The target of data set [2] is T1, tau 4R2N peptide (amino acids 335-353).
T1 chain: GQVEVKSEKLDFKDRVQSK

Data set [3] deals with T2, tau FRET peptide OP-002, MCA-GGQVEVKSE{Lys(DNP)}.
T2 chain: GGQVEVKSE

“recombinant human tau 4R2N (full-length tau protein)”: the “autoproteolysis, N-terminal Edman sequencing of fragment F3” value is on record as “The N-terminal sequence of fragment F3 was determined to be SEKLDF corresponding to amino acids 341-346 of Tau 4R2N” and the “autoproteolysis, N-terminal Edman sequencing of fragments 1-4” value is recorded as “The N-terminal sequence of the four fragments was the same: SKDGTG”. In addition, the “zymogram, clearing of blue casein” value in data set [1] is listed as “tau had the ability to cut the casein protein substrate in the zymogram”.

B1: TP-99 (Tau 4R2N 241-340) (protein)
chain: MRLQTAPVPMPDLKNVKSKIGSTENLKHQPGGGKVQIINKKLDLSNVQSKCGSKDNIKHVPGGGSVQIVYKPVDLSKVTSKCGSLGNIHHKPGGGQVEVK
With B1, the “cleavage of peptide substrate, reverse-phase HPLC” value in data set [2] is “intact peptide which is greatly diminished in the upper trace and replaced with two smaller peaks F1 and F2 that represent fragments generated by TP-99”.

B2: Tau 4R2N 260-340 (TP-81) (protein)
chain: MIGSTENLKHQPGGGKVQIINKKLDLSNVQSKCGSKDNIKHVPGGGSVQIVYKPVDLSKVTSKCGSLGNIHHKPGGGQVEVK
Take B2: the “fluorescence of FRET peptide, plate reader” value in data set [3] is “Tau 4R2N 260-340 cuts tau FRET peptide”.

B3: TP-210 (Tau 4R2N 131-340) (protein)
chain: MSKDGTGSDDKKAKGADGKTKIATPRGAAPPGQKGQANATRIPAKTPPAPKTPPSSGEPPKSGDRSGYSSPGSPGTPGSRSRTPSLPTPPTREPKKVAVVRTPPKSPSSAKSRLQTAPVPMPDLKNVKSKIGSTENLKHQPGGGKVQIINKKLDLSNVQSKCGSKDNIKHVPGGGSVQIVYKPVDLSKVTSKCGSLGNIHHKPGGGQVEVK
For the molecule B3, the “cleavage of peptide substrate, reverse-phase HPLC” value in data set [2] is “intact peptide was greatly diminished in the upper trace and replaced with two smaller peaks F1 and F2 that represent fragments generated by TP-210”.
